Data from the supplement of paper PMC9112550, “Optimization of the antimicrobial peptide Bac7 by deep mutational scanning” (BMC Biology, 2022).

Test system: Escherichia coli TOP10
Experiment: shrunken log2 fold change of peptide-encoding DNA abundance (4.5 h post-induction vs induction); higher = less antimicrobial activity (less host growth inhibition)
Conditions: time post-induction: 4.5 h; library: site-saturation at positions 5, 18, 19, 20
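Note: peptides expressed intracellularly from a pBAD plasmid library in pooled LB shake-flask culture, induced with 0.3% L-arabinose, DNA abundance read by NGS, three biological replicates, DESeq2 with apeglm shrinkage.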

Sequence	shrunken log2 fold change
RRIRQRPPRLPRPRPRPAISPRP	-0.292
RRIRQRPPRLPRPRPRPAIVPRP	-0.0943
RRIRQRPPRLPRPRPRPAKGPRP	0.01
RRIRQRPPRLPRPRPRPAKQPRP	0.0569
RRIRQRPPRLPRPRPRPAMKPRP	-0.204
RRIRQRPPRLPRPRPRPANLPRP	0.164
RRIRQRPPRLPRPRPRPANNPRP	-0.27
RRIRQRPPRLPRPRPRPAPCPRP	0.222
RRIRQRPPRLPRPRPRPAPVPRP	1.06
RRIRQRPPRLPRPRPRPAQYPRP	-0.0388
RRIRQRPPRLPRPRPRPAREPRP	-0.0167
RRIRQRPPRLPRPRPRPARTPRP	0.167
RRIRQRPPRLPRPRPRPASLPRP	-0.232
RRIRQRPPRLPRPRPRPATKPRP	0.154
RRIRQRPPRLPRPRPRPAWYPRP	-0.0125
RRIRQRPPRLPRPRPRPAYFPRP	0.191
RRIRQRPPRLPRPRPRPAYIPRP	-0.00563
RRIRQRPPRLPRPRPRPCCEPRP	-0.256
RRIRQRPPRLPRPRPRPCCVPRP	0.115
RRIRQRPPRLPRPRPRPCDSPRP	-0.0167
RRIRQRPPRLPRPRPRPCGGPRP	0.257
RRIRQRPPRLPRPRPRPCISPRP	-0.177
RRIRQRPPRLPRPRPRPCKHPRP	-1.29
RRIRQRPPRLPRPRPRPCKVPRP	-0.101
RRIRQRPPRLPRPRPRPCLEPRP	0.0782

Sequence	shrunken log2 fold change
RRIRQRPPRLPRPRPRPCNDPRP	-0.374
RRIRQRPPRLPRPRPRPCQWPRP	-0.205
RRIRQRPPRLPRPRPRPCRMPRP	-0.126
RRIRQRPPRLPRPRPRPCRTPRP	0.0557
RRIRQRPPRLPRPRPRPCTEPRP	0.0363
RRIRQRPPRLPRPRPRPCTVPRP	-0.521
RRIRQRPPRLPRPRPRPCVNPRP	0.0293
RRIRQRPPRLPRPRPRPCWVPRP	-0.0437
RRIRQRPPRLPRPRPRPDAKPRP	0.199
RRIRQRPPRLPRPRPRPDDFPRP	-0.0929
RRIRQRPPRLPRPRPRPDDGPRP	-0.171
RRIRQRPPRLPRPRPRPDGFPRP	-0.0107
RRIRQRPPRLPRPRPRPDKNPRP	-0.635
RRIRQRPPRLPRPRPRPDLDPRP	0.0552
RRIRQRPPRLPRPRPRPDNAPRP	-0.246
RRIRQRPPRLPRPRPRPDPRPRP	-0.00604
RRIRQRPPRLPRPRPRPDPVPRP	0.0565
RRIRQRPPRLPRPRPRPDQKPRP	0.019
RRIRQRPPRLPRPRPRPDRCPRP	0.298
RRIRQRPPRLPRPRPRPDSRPRP	-0.0119
RRIRQRPPRLPRPRPRPDTNPRP	-0.413
RRIRQRPPRLPRPRPRPDVDPRP	-0.152
RRIRQRPPRLPRPRPRPDVRPRP	-0.023
RRIRQRPPRLPRPRPRPDWRPRP	0.0703
RRIRQRPPRLPRPRPRPDYAPRP	-0.00674

Sequence	shrunken log2 fold change
RRIRQRPPRLPRPRPRPDYQPRP	0.00672
RRIRQRPPRLPRPRPRPEAIPRP	-0.0935
RRIRQRPPRLPRPRPRPECMPRP	-0.0252
RRIRQRPPRLPRPRPRPEDSPRP	-0.0908
RRIRQRPPRLPRPRPRPEEQPRP	0.39
RRIRQRPPRLPRPRPRPEEWPRP	0.0824
RRIRQRPPRLPRPRPRPEFKPRP	-0.0763
RRIRQRPPRLPRPRPRPEHYPRP	-0.153
RRIRQRPPRLPRPRPRPELEPRP	-0.0293
RRIRQRPPRLPRPRPRPEMSPRP	0.161
RRIRQRPPRLPRPRPRPEPAPRP	0.789
RRIRQRPPRLPRPRPRPEPMPRP	0.0452
RRIRQRPPRLPRPRPRPEPNPRP	-0.0098
RRIRQRPPRLPRPRPRPEQEPRP	-0.0311
RRIRQRPPRLPRPRPRPEQKPRP	0.039
RRIRQRPPRLPRPRPRPEQNPRP	-0.012
RRIRQRPPRLPRPRPRPERNPRP	0.0526
RRIRQRPPRLPRPRPRPESEPRP	0.219
RRIRQRPPRLPRPRPRPESIPRP	0.0598
RRIRQRPPRLPRPRPRPESWPRP	0.461
RRIRQRPPRLPRPRPRPEWIPRP	-0.00133
RRIRQRPPRLPRPRPRPEYKPRP	-0.124
RRIRQRPPRLPRPRPRPEYSPRP	-0.191
RRIRQRPPRLPRPRPRPEYWPRP	0.0626
RRIRQRPPRLPRPRPRPFAEPRP	-0.00183

Sequence	shrunken log2 fold change
RRIRQRPPRLPRPRPRPFCNPRP	0.0828
RRIRQRPPRLPRPRPRPFCWPRP	0.42
RRIRQRPPRLPRPRPRPFEPPRP	-0.238
RRIRQRPPRLPRPRPRPFEWPRP	0.0112
RRIRQRPPRLPRPRPRPFFLPRP	-0.376
RRIRQRPPRLPRPRPRPFFMPRP	-0.129
RRIRQRPPRLPRPRPRPFFPPRP	-0.0441
RRIRQRPPRLPRPRPRPFFYPRP	-0.257
RRIRQRPPRLPRPRPRPFIKPRP	-0.382
RRIRQRPPRLPRPRPRPFIQPRP	-0.321
RRIRQRPPRLPRPRPRPFKKPRP	0.0942
RRIRQRPPRLPRPRPRPFNCPRP	-0.0275
RRIRQRPPRLPRPRPRPFNNPRP	-0.476
RRIRQRPPRLPRPRPRPFPAPRP	-0.0923
RRIRQRPPRLPRPRPRPFPFPRP	-0.00711
RRIRQRPPRLPRPRPRPFPKPRP	0.0141
RRIRQRPPRLPRPRPRPFPLPRP	-0.0585
RRIRQRPPRLPRPRPRPFRVPRP	-0.153
RRIRQRPPRLPRPRPRPFSEPRP	-0.477
RRIRQRPPRLPRPRPRPFSIPRP	-0.104
RRIRQRPPRLPRPRPRPFTEPRP	-0.223
RRIRQRPPRLPRPRPRPFVCPRP	-0.0472
RRIRQRPPRLPRPRPRPFVDPRP	-0.00879
RRIRQRPPRLPRPRPRPFWNPRP	-0.00884
RRIRQRPPRLPRPRPRPFYWPRP	-0.418

Sequence	shrunken log2 fold change
RRIRQRPPRLPRPRPRPGACPRP	0.206
RRIRQRPPRLPRPRPRPGANPRP	0.17
RRIRQRPPRLPRPRPRPGATPRP	0.273
RRIRQRPPRLPRPRPRPGCDPRP	-0.229
RRIRQRPPRLPRPRPRPGCYPRP	-0.451
RRIRQRPPRLPRPRPRPGDCPRP	-0.0893
RRIRQRPPRLPRPRPRPGEHPRP	-0.0241
RRIRQRPPRLPRPRPRPGELPRP	-0.091
RRIRQRPPRLPRPRPRPGEQPRP	0.201
RRIRQRPPRLPRPRPRPGFEPRP	0.809
RRIRQRPPRLPRPRPRPGFIPRP	-0.408
RRIRQRPPRLPRPRPRPGGTPRP	0.11
RRIRQRPPRLPRPRPRPGHCPRP	0.217
RRIRQRPPRLPRPRPRPGHKPRP	-0.00306
RRIRQRPPRLPRPRPRPGIEPRP	-0.113
RRIRQRPPRLPRPRPRPGINPRP	-0.296
RRIRQRPPRLPRPRPRPGISPRP	0.0461
RRIRQRPPRLPRPRPRPGKCPRP	0.0125
RRIRQRPPRLPRPRPRPGMAPRP	0.0366
RRIRQRPPRLPRPRPRPGMTPRP	0.00903
RRIRQRPPRLPRPRPRPGNSPRP	-0.391
RRIRQRPPRLPRPRPRPGPKPRP	-0.0957
RRIRQRPPRLPRPRPRPGQAPRP	0.0026
RRIRQRPPRLPRPRPRPGQNPRP	-0.223
RRIRQRPPRLPRPRPRPGRDPRP	3.85

Sequence	shrunken log2 fold change
RRIRQRPPRLPRPRPRPGSIPRP	-0.218
RRIRQRPPRLPRPRPRPGSWPRP	0.298
RRIRQRPPRLPRPRPRPGVHPRP	0.0118
RRIRQRPPRLPRPRPRPGVRPRP	-0.0485
RRIRQRPPRLPRPRPRPGWIPRP	0.179
RRIRQRPPRLPRPRPRPGYFPRP	0.0104
RRIRQRPPRLPRPRPRPHCGPRP	0.0588
RRIRQRPPRLPRPRPRPHCVPRP	-0.0218
RRIRQRPPRLPRPRPRPHDEPRP	-0.158
RRIRQRPPRLPRPRPRPHEMPRP	-0.111
RRIRQRPPRLPRPRPRPHFGPRP	-0.0794
RRIRQRPPRLPRPRPRPHFLPRP	-0.218
RRIRQRPPRLPRPRPRPHFTPRP	-0.217
RRIRQRPPRLPRPRPRPHGEPRP	0.215
RRIRQRPPRLPRPRPRPHHNPRP	-0.706
RRIRQRPPRLPRPRPRPHHRPRP	0.104
RRIRQRPPRLPRPRPRPHICPRP	-0.049
RRIRQRPPRLPRPRPRPHIRPRP	-0.209
RRIRQRPPRLPRPRPRPHKHPRP	-0.502
RRIRQRPPRLPRPRPRPHLAPRP	-0.0779
RRIRQRPPRLPRPRPRPHLQPRP	-0.0325
RRIRQRPPRLPRPRPRPHMGPRP	-0.512
RRIRQRPPRLPRPRPRPHNSPRP	-0.596
RRIRQRPPRLPRPRPRPHPAPRP	-0.114
RRIRQRPPRLPRPRPRPHPIPRP	-0.133
